We go through one substance from publication PMC441372.

The assay has as its target endogenous gelsolin (mouse (endogenous in osteoclasts)) (UniProt P13020). Kind of assay: co-IP.

Sequence of endogenous gelsolin (mouse (endogenous in osteoclasts)) (P13020 26-780): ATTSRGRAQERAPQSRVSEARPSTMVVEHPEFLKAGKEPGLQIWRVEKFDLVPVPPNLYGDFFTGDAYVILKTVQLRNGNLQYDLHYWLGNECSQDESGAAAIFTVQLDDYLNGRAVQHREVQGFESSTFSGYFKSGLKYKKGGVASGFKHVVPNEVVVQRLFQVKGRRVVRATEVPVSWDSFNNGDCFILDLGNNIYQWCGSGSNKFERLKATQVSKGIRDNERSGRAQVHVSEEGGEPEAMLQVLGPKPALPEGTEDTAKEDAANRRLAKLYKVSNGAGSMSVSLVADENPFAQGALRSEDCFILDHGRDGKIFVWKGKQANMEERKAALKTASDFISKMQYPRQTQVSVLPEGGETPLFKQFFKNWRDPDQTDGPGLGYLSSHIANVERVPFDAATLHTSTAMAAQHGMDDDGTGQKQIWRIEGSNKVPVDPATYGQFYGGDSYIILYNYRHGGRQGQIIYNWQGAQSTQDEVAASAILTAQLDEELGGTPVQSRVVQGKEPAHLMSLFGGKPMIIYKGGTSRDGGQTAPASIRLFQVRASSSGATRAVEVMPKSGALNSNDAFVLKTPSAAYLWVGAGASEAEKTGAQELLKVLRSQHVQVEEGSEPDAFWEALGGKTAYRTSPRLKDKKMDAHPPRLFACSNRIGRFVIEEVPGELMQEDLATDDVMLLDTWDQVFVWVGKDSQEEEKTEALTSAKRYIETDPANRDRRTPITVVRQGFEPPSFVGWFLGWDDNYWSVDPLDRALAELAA

As to “actin (from UniProt P60710 1-375) (natural protein)”, the gelsolin/actin ratio of the EGTA-resistant complex (untransduced, OPN) came to 0.82 and the gelsolin/actin ratio of the EGTA-resistant complex (untransduced, PBS) turned out to be 1.45.
